# Measurements from paper PMC7614968.
# Target: SteD (untagged, HIS tag cleaved) (Salmonella enterica serovar Typhimurium (14028s))
# Experiment: SEC-MALS; co-purified untagged SteD-SrcA complex at 8 mg/ml on analytical Superdex200 in the dialysis buffer (20 mM phosphate pH 6.8, 150 mM NaCl, 5 % glycerol, 1 mM DTT), 0.4 ml/min
substance,measurement,value
"SrcA (untagged, recombinant) (natural protein)",stoichiometry N (SrcA molecules per SteD molecule),2
